B1: Gluc1-IKKε (pSPICA-N1 human IKKε) (natural protein)
chain: MQSTANYLWHTDDLLGQGATASVYKARNKKSGELVAVKVFNTTSYLRPREVQVREFEVLRKLNHQNIVKLFAVEETGGSRQKVLVMEYCSSGSLLSVLESPENAFGLPEDEFLVVLRCVVAGMNHLRENGIVHRDIKPGNIMRLVGEEGQSIYKLTDFGAARELDDDEKFVSVYGTEEYLHPDMYERAVLRKPQQKAFGVTVDLWSIGVTLYHAATGSLPFIPFGGPRRNKEIMYRITTEKPAGAIAGAQRRENGPLEWSYTLPITCQLSLGLQSQLVPILANILEVEQAKCWGFDQFFAETSDILQRVVVHVFSLSQAVLHHIYIHAHNTIAIFQEAVHKQTSVAPRHQEYLFEGHLCVLEPSVSAQHIAHTTASSPLTLFSTAIPKGLAFRDPALDVPKFVPKVDLQADYNTAKGVLGAGYQALRLARALLDGQELMFRGLHWVMEVLQATCRRTLEVARTSLLYLSSSLGTERFSSVAGTPEIQELKAAAELRSRLRTLAEVLSRCSQNITETQESLSSLNRELVKSRDQVHEDRSIQQIQCCLDKMNFIYKQFKKSRMRPGLGYNEEQIHKLDKVNFSHLAKRLLQVFQEECVQKYQASLVTHGKRMRVVHETRNHLRLVGCSVAACNTEAQGVQESLSKLLEELSHQLLQDRAKGAQASPPPIAPYPSPTRKDLLLHMQELCEGMKLLASDLLDNNRIIERLNRVPAPPDV

Biological target: Gluc2-VP3 BTV8 (pSPICA-N2-VP3 BTV8)
Experiment: split reporter (BiFC, NanoBiT)

| Molecule | NLR (normalized luminescence ratio) |
| --- | --- |
| Gluc1-MAVS (pSPICA-N1 human MAVS) (from UniProt Q7Z434 1-540) (natural protein) | 17.4 |
| B1 | 17.7 |
